In article PMC5820184 (Proteins, 2017):

How the values were obtained:
Test in all cases: crystal structure
[1] = target: Snake Atadenovirus 1 LH3 protein (snake adenovirus 1)
[2] = target: Sorbitol dehydrogenase (BjSDH) from Bradyrhizobium japonicum (Bradyrhizobium japonicum)
crystal structure = target: the molecule itself

## Snake Atadenovirus 1 LH3 protein (natural protein)
[1]
  stoichiometry N: 3

## Sorbitol dehydrogenase (BjSDH) from Bradyrhizobium japonicum (enzyme)
[2]
  stoichiometry N: 4

B1: FliD_(78-405), flagellar cap protein from Pseudomonas aeruginosa PAO1 (domain or fragment)
chain: NEDILKASATQSAVAGTYQIQVNSLATSSKIALQAIADPANAKFNSGTLNISVGDTKLPAITVDSSNNTLAGMRDAINQAGKEAGVSATIITDNSGSRLVLSSTKTGDGKDIKVEVSDDGSGGNTSLSQLAFDPATAPKLSDGAAAGYVTKAANGEITVDGLKRSIASNSVSDVIDGVSFDVKAVTEAGKPITLTVSRDDAGVKDNVKKFVEAYNTLTKFINEQTVVTKVGEDKNPVTGALLGDASVRALVNTMRSELIASNENGSVRNLAALGITTTKDGTLEIDEKKLDKAISADFEGVASYFTGDTGLAKRLGDKMKPYTDAQGI
Crystal structure
  stoichiometry N: 6
